Test results taken from IntAct's records for PubMed 26320582.

Each substance was assayed against tom1_human TOM1 (UniProt O60784).
Chain of tom1_human TOM1 (O60784 whole entry): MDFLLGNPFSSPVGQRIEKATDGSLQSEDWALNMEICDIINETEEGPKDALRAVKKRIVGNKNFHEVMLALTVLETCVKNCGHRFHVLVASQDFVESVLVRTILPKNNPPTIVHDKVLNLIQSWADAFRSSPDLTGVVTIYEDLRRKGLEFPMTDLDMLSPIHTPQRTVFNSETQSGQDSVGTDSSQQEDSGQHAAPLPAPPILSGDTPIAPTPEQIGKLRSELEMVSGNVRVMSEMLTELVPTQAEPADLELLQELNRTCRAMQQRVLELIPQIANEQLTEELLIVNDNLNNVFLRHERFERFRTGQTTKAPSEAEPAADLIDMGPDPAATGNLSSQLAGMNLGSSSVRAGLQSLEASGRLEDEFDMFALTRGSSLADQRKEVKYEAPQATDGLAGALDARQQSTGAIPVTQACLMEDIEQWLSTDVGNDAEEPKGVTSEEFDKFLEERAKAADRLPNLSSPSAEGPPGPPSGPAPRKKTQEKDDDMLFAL

Effect of a mutation on the interaction, decreasing interaction strength:
Toll-interacting protein (Homo sapiens) (from UniProt Q9H0E2-1) D20A;R23A
Toll-interacting protein (Homo sapiens) (from UniProt Q9H0E2-1) F21A
Toll-interacting protein (Homo sapiens) (from UniProt Q9H0E2-1) R9A;V12A
